Measured values: patent US20240238448

Target: ZFHD1-FKBP (ZF-FKBP fusion) (synthetic construct) (UniProt P08046+P14859)
Experiment: cell_activity
Details: GFP reporter in 293-ZF-FKBP cells with CEM87 recruiting BRD4; dose-dependent; indirect evidence of binding; no response in WT 293 cells

Sequence of ZFHD1-FKBP (ZF-FKBP fusion) (synthetic construct) (P08046 333-390, chain 1 of 2): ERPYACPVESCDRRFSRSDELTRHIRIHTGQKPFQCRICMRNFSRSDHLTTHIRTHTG
Sequence of ZFHD1-FKBP (ZF-FKBP fusion) (synthetic construct) (P14859 378-439, chain 2 of 2): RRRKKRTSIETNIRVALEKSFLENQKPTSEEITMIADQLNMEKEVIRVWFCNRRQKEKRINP

For “ZF binding domain recognition sequence (ZFHD1 cognate site) upstream of JET promoter in AAV2-BD-JET-GFP”, the activity (fold activation) was greater than 10.
